Data: paper PMC4454452 (The Biochemical journal, 2014)
pKd: −log10 of the molar value.

Tests used:
[1] = test system: H3K4me3, H3K9me3 and H3K27me3; conditions: previously demonstrated; cited from earlier work
GST-fusion CHD4 PHD2 = GST-fusion CHD4 PHD2 (Homo sapiens, UniProt Q14839); assay: Pull-down of GST-CHD4 PHD2 by biotinylated histone peptides in the absence of 2; assay type: binding; conditions: absence of 2, Western blot
CHD4 PHD2 finger = CHD4 PHD2 finger (Homo sapiens, UniProt Q14839); conditions: read-out: Kd of CHD4 PHD2 for histone peptide; cited from earlier work
Chain of CHD4 PHD2 finger (Q14839 449-496 limits assumed): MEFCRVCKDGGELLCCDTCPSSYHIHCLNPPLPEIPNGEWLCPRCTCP

Chain of GST-fusion CHD4 PHD2 (Q14839 449-496 limits assumed): as above

Compound	binding to trimethylated lysine peptides H3K4me3, H3K9me3 and H3K27me3 [1]	binding of GST–CHD4 PHD2 to biotinylated histone peptide (GST-fusion CHD4 PHD2)	pKd (CHD4 PHD2 finger)
O=S(=O)(O)c1cc2c(O)c(c1)Cc1cc(S(=O)(=O)O)cc(c1O)Cc1cc(S(=O)(=O)O)cc(c1O)Cc1cc(S(=O)(=O)O)cc(c1O)C2 [Compound 1, p-sulfonatocalix[4]arene]	equally well		
H3K4me3: biotinylated histone H3 peptide (residues 1–20) trimethylated at Lys4 [Compound H3K4me3]		significantly weaker	~2.70
H3K27me3: biotinylated histone H3 peptide (residues 21–44) trimethylated at Lys27 [Compound H3K27me3]		no interaction	
